Patent US20070004619A1, “Relaxin superfamily peptide analogues” (Howard Florey Institute of Experimental Physiology and …, priority 2003, published 2007)
Positions of bridges follow the written chain, without caps; N, C: chain ends. No end group written: not given here.

Assays:
[1] = biological target: T1, human LGR8 (Homo sapiens, UniProt Q8WXD0); assay: Functional cAMP assay: inhibition of the INSL3 response at the native INSL3 receptor (LGR8); assay type: cell-based; settings: FIG. 4; human 293T cells stably transfected with human LGR8; cAMP ELISA
T1 construct: expressed in transfected cells; host or cells: human 293T cells, stably transfected
Method: Human 293T cells stably transfected with human LGR7, or LGR8 were preincubated in the presence of 0.25 mM 3-isobutyl-1-methyl xanthine (IBMX, Sigma) before various treatments for 30 minutes. At the end of the incubation cells were lysed for measurement of cAMP using a well-characterized cAMP ELISA (Satoko et al., J Biol Chem, 278:7855-7862). All experiments were repeated at least three times using cells from independent transfections, Results are plotted as pmol cAMP/10^4 cells.

[2] = Circular dichroism (CD) spectroscopy; assay type: physicochemical; settings: FIG. 5; in water and phosphate buffered saline
Method: Circular Dichroism (CD) Spectroscopy:
CD spectra were taken on a Jasco J-720 instrument at room temperature in a 1 mm path-length cell, Doubly distilled water, 10 mM sodium phosphate buffer containing 120 mM NaCl pH 7.4, and spectroscopy grade trifluoroethanol (TFE) were used as solvents. The peptide concentrations were made to 1 μM, determined by quantitative RP-HPLC and amino acid analysis (ref). Curves were smoothed by the algorithm provided by Jasco, Mean residue ellipticity ([θ]MR) is expressed in degrees×cm2/dmole by using the molecular mass. CD spectra evaluations were based on comparison with known peptide conformations (Otvos, L., Jr. 1996. from Neuropeptide protocols. Irvine, G. & Williams, C., Eds. pp 153-161. Humana Press, Totowa, N.J.).

T1 sequence (Q8WXD0 whole entry): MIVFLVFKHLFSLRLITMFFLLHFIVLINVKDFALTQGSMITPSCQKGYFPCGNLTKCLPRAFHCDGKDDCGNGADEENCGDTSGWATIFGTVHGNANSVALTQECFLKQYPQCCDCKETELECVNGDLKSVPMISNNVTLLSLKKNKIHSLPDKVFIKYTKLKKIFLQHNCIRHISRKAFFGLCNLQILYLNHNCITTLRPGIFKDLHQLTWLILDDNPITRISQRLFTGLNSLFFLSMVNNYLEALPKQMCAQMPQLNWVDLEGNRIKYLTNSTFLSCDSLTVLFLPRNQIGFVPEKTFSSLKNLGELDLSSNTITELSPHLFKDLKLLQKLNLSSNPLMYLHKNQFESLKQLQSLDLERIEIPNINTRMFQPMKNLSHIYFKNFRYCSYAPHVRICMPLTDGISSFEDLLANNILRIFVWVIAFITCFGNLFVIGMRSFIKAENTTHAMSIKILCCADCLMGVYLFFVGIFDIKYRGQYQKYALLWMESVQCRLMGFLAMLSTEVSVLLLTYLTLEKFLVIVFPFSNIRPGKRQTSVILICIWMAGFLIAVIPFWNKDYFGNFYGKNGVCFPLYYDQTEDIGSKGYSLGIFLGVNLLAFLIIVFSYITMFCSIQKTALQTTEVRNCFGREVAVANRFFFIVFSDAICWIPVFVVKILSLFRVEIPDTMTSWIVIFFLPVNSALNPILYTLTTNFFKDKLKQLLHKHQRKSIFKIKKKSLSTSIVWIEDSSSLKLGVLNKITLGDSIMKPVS

cINSLa: cyclic INSL3 B-chain mimetic; Glu4 and Arg26 replaced with cysteine and a disulphide bond formed (PTPCMREKLCGHHFVRALVRVCGGPCWSTEA; disulfide 4-26; cysteine pairing not given here)
inhibition of the response of INSL3 (measured by cAMP response) to the native INSL3 receptor (LGR8) [1]: antagonistic activity | alpha-helical content from CD spectra [2]: significant alpha-helical content
